# Changes are numbered by the printed parent chain. “And” between values parts separate entries of the source, which are not always exact repeats. Equal values may be shown once. Read-outs that look alike come from different tables or passages of the source.
# B1: Antibody 5 (antibody, V domains shown)
# VH: QVQLQQSGPGLVKPSQTLSLTCAISGDRVSSNSAVWNWIRQSPSRGLEWLGRTYYRSKWYYDYAESVKSRIVIDPDTSKNQVSLQLNSVTPEDSAIYYCARGGHITVFGLNIDAYDIWGQGAMVTVSS
# VL: DIQMTQSPSSLSASVGDRVTISCRAQSLSSYLHWYQQKPGQPPKLLIYAATTLQSGVPSRFSGSGSGTDFTLTISTFQAEDVATYYCQQSRTFGQGTKVEIK
# B2: Antibody 10 (antibody, V domains shown)
# VH: QVQLQQSGPGLVKPSQTLSLTCAISGDSVSSNSATWNWIRQSPSRGLEWLGRTYYRSKWYNDYADFLKRRITINPDTSNNEVSLRLTSVTPDDTALYYCARGGHITVFGVNIDAFDVWGQGTMVTVSS
# VL: DIQMTQSPSSLSASVGDRITISCRTSQSLRSYLHWYQQKPGKAPKLLIYASSTLQSGVPSRFSGSGSGTDFTLTISNLQPEDFATYYCQLSRTFGQGTKVEIK
# B3: Antibody 15 (antibody, V domains shown)
# VH: QVQLQQSGPGLVKPSQTLSLTCAISGDSVSSNNAVWNWIRQSPSRGLEWLGRTYYRSKWYNDYAESVKSRITINPDTSKNQFSLQLNSVTPEDTAVYYCARSGHITVFGVNVDAFDMWGQGTTVTVSS
# VL: B2 VL with I19V, S22T, R30S, L33T, S51A, T53S, L54R, Q55G, N77S, L90Q
# B4: Antibody 13 (antibody, V domains shown)
# VH: B3 VH with N32Y, K58G, T123M
# VL: B2 VL with I19V, S22T, R30S, L33D, S51A, T53S, L54R, Q55L, N77S, L90Q
# B5: Antibody 11 (antibody, V domains shown)
# VH: B3 VH with N32Y, K58G, T123M
# VL: B2 VL with I19V, S22T, R30S, L33T, S51A, T53S, L54R, Q55L, N77S, L90Q
# How the values were obtained:
# Assay in all cases: cell-based or functional assay
# [1] = molecular target: HA of ca A/teal/Hong Kong/W312/97 (H6N1) (influenza A virus)
# [2] = molecular target: HA of A/Victoria/3/75 (H3N2) (influenza A virus)
# [3] = molecular target: HA of ca A/Hong Kong/213/03 (H5N1) (influenza A virus)
# [4] = molecular target: HA of A/Fort Monmouth/1/47 (H1N1) (influenza A virus)
# [5] = molecular target: HA of ca A/Sydney/5/97 (H3N2) (influenza A virus)
# [6] = molecular target: HA of A/Kawasaki/9/86 (H1N1) (influenza A virus)
# [7] = molecular target: HA of ca A/Texas/36/91 (H1N1) (influenza A virus)
# [8] = molecular target: HA of A/Hong Kong/8/68 (H3N2) (influenza A virus)
# [9] = molecular target: HA of A/Wisconsin/67/05 (H3N2) (influenza A virus)
# [10] = molecular target: HA of A/Wyoming/03/03 (H3N2) (influenza A virus)
# [11] = molecular target: HA of ca A/Vietnam/1203/04 (H5N1) (influenza A virus)
# [12] = molecular target: HA of A/New Jersey/8/76 (H1N1) (influenza A virus)
# [13] = molecular target: HA of ca A/Beijing/262/95 (H1N1) (influenza A virus)
# [14] = molecular target: HA of ca A/Netherlands/219/03 (H7N7) (influenza A virus)
# [15] = molecular target: HA of ca A/New Caledonia/20/99 (H1N1) (influenza A virus)
# [16] = molecular target: HA of ca A/Perth/16/09 (H3N2) (influenza A virus)
# [17] = molecular target: T1, HA of ca A/chicken/Hong Kong/G9/97 (H9N2) (influenza A virus)
# [18] = molecular target: HA of ca A/swine/Missouri/06 (H2N3) (influenza A virus)
# [19] = molecular target: HA of ca A/Panama/2007/99 (H3N2) (influenza A virus)
# [20] = molecular target: T2, HA of ca A/Brit. Columbia/CN-6/04 (H7N3-LP) (influenza A virus)
# [21] = molecular target: HA of swine-origin A/Minnesota/11/2010 H3N2 virus (influenza A virus)
# [22] = molecular target: HA of ca A/teal/Hong Kong/W312/97 (H6N1) (influenza A virus); remark: listed apart in the source
# [23] = molecular target: HA of A/Victoria/3/75 (H3N2) (influenza A virus); remark: listed apart in the source
# HA of virus H1-BS10 = molecular target: HA of virus H1-BS10
# [24] = molecular target: HA of ca A/Japan/57 (H2N2) (influenza A virus)
# [25] = molecular target: HA of ca A/Hong Kong/213/03 (H5N1) (influenza A virus); remark: listed apart in the source
# [26] = molecular target: HA of A/Fort Monmouth/1/47 (H1N1) (influenza A virus); remark: listed apart in the source
# [27] = molecular target: HA of ca A/Sydney/5/97 (H3N2) (influenza A virus); remark: listed apart in the source
# [28] = molecular target: HA of A/Kawasaki/9/86 (H1N1) (influenza A virus); remark: listed apart in the source
# [29] = molecular target: HA of ca A/Texas/36/91 (H1N1) (influenza A virus); remark: listed apart in the source
# [30] = molecular target: HA of A/Hong Kong/8/68 (H3N2) (influenza A virus); remark: listed apart in the source
# [31] = molecular target: HA of A/Wisconsin/67/05 (H3N2) (influenza A virus); remark: listed apart in the source
# [32] = molecular target: HA of ca A/Vietnam/1203/04 (H5N1) (influenza A virus); remark: listed apart in the source
# [33] = molecular target: HA of A/New Jersey/8/76 (H1N1) (influenza A virus); remark: listed apart in the source
# [34] = molecular target: HA of ca A/mallard/Alberta/89/85 (H6N2) (influenza A virus)
# [35] = molecular target: HA of ca A/Beijing/262/95 (H1N1) (influenza A virus); remark: listed apart in the source
# [36] = molecular target: HA of ca A/Netherlands/219/03 (H7N7) (influenza A virus); remark: listed apart in the source
# [37] = molecular target: HA of ca A/New Caledonia/20/99 (H1N1) (influenza A virus); remark: listed apart in the source
# [38] = molecular target: HA of ca A/Perth/16/09 (H3N2) (influenza A virus); remark: listed apart in the source
# [39] = molecular target: T1, HA of ca A/chicken/Hong Kong/G9/97 …; remark: listed apart in the source
# [40] = molecular target: HA of ca A/swine/Missouri/06 (H2N3) (influenza A virus); remark: listed apart in the source
# [41] = molecular target: HA of ca A/Panama/2007/99 (H3N2) (influenza A virus); remark: listed apart in the source
# [42] = molecular target: T2, HA of ca A/Brit. Columbia/CN-6/04 …; remark: listed apart in the source
# [43] = molecular target: HA of A/Victoria/361/11 (H3N2) (influenza A virus)
Binder,"Neutralizing activity IC50, swine-origin A/Minnesota/11/2010 [21]","Neutralization IC50, H6-HK97 [22]","Neutralization IC50, H3-Vic75 [23]","Neutralization IC50, H1-BS10 (HA of virus H1-BS10)","Neutralization IC50, H2-JP57 [24]","Neutralization IC50, H5-HK03 [25]","Neutralization IC50, H1-FM47 [26]","Neutralization IC50, H3-Syd97 [27]","Neutralization IC50, H1-Kaw86 [28]","Neutralization IC50, H1-TX91 [29]","Neutralization IC50, H3-HK68 [30]","Neutralization IC50, H3-WI05 [31]","Neutralization IC50, H5-VM04 [32]","Neutralization IC50, H1-NJ76 [33]","Neutralization IC50, H6-AB85 [34]","Neutralization IC50, H1-BJ95 [35]","Neutralization IC50, H7-NLD03 [36]","Neutralization IC50, H1-Ncal99 [37]","Neutralization IC50, H3-Perth09 [38]","Neutralization IC50, H9-HK97 [39]",other results
B1,–,–,–,–,–,–,–,–,–,–,–,–,–,–,–,–,–,–,–,–,"Neutralization IC50, H6-HK97 [1]: 2.27 mg/L; Neutralization IC50, H3-Vic75 [2]: 0.57 mg/L; Neutralization IC50, H5-HK03 [3]: 1.18 mg/L; Neutralization IC50, H1-FM47 [4]: 0.86 mg/L; Neutralization IC50, H3-Syd97 [5]: 3.03 mg/L; Neutralization IC50, H1-Kaw86 [6]: 1.01 mg/L; Neutralization IC50, H1-TX91 [7]: 0.76 mg/L; Neutralization IC50, H3-HK68 [8]: 0.39 mg/L; Neutralization IC50, H3-WI05 [9]: 2.83 mg/L; Neutralization IC50, H3-Wy03 [10]: 0.77 mg/L; Neutralization IC50, H5-VM04 [11]: 2.6 mg/L; Neutralization IC50, H1-NJ76 [12]: 1.64 mg/L; Neutralization IC50, H1-BJ95 [13]: 5.06 mg/L; Neutralization IC50, H7-NLD03 [14]: 4.14 mg/L; Neutralization IC50, H1-Ncal99 [15]: 0.85 mg/L; Neutralization IC50, H3-Perth09 [16]: 2.22 mg/L; Neutralization IC50, H9-HK97 [17]: 2.43 mg/L; Neutralization IC50, H2-MO06 [18]: 2.38 mg/L; Neutralization IC50, H3-Pa99 [19]: 16.7 mg/L; Neutralization IC50, H7-BC04 [20]: 5.35 mg/L"
B2,–,–,–,–,–,–,–,–,–,–,–,–,–,–,–,–,–,–,–,–,"Neutralization IC50, H6-HK97 [1]: 1.05 mg/L; Neutralization IC50, H3-Vic75 [2]: 0.91 mg/L; Neutralization IC50, H5-HK03 [3]: 1.6 mg/L; Neutralization IC50, H1-FM47 [4]: 1.11 mg/L; Neutralization IC50, H3-Syd97 [5]: 9.29 mg/L; Neutralization IC50, H1-Kaw86 [6]: 1.62 mg/L; Neutralization IC50, H1-TX91 [7]: 0.48 mg/L; Neutralization IC50, H3-HK68 [8]: 0.85 mg/L; Neutralization IC50, H3-WI05 [9]: 4.46 mg/L; Neutralization IC50, H3-Wy03 [10]: 1.52 mg/L; Neutralization IC50, H5-VM04 [11]: 2.21 mg/L; Neutralization IC50, H1-NJ76 [12]: 0.15 mg/L; Neutralization IC50, H1-BJ95 [13]: 4.46 mg/L; Neutralization IC50, H7-NLD03 [14]: 3.8 mg/L; Neutralization IC50, H1-Ncal99 [15]: 1.26 mg/L; Neutralization IC50, H3-Perth09 [16]: 2.56 mg/L; Neutralization IC50, H9-HK97 [17]: 1.76 mg/L; Neutralization IC50, H2-MO06 [18]: 1.04 mg/L; Neutralization IC50, H3-Pa99 [19]: 18.7 mg/L; Neutralization IC50, H7-BC04 [20]: 3.59 mg/L"
B3,0.9 mg/L and 2.7 mg/L,0.33 mg/L,0.35 mg/L,1.89 mg/L,0.33 mg/L,0.05 mg/L,0.35 mg/L,1.79 mg/L,0.48 mg/L,0.13 mg/L,0.5 mg/L,1.3 mg/L,0.28 mg/L,0.25 mg/L,0.19 mg/L,1.81 mg/L,1.3 mg/L,0.79 mg/L,0.5 mg/L,0.35 mg/L,"Neutralization IC50, H2-MO06 [40]: 0.83 mg/L; Neutralization IC50, H3-Pa99 [41]: 3.39 mg/L; Neutralization IC50, H7-BC04 [42]: 1.25 mg/L; Neutralization IC50, H3-VC11 [43]: 1.29 mg/L"
B4,1.6 mg/L and 1.4 mg/L,0.55 mg/L,0.43 mg/L,1.23 mg/L,0.47 mg/L,0.17 mg/L,0.5 mg/L,2.18 mg/L,0.41 mg/L,0.09 mg/L,0.44 mg/L,1.19 mg/L,0.56 mg/L,0.12 mg/L,0.29 mg/L,1.86 mg/L,2.45 mg/L,0.77 mg/L,0.28 mg/L,0.29 mg/L,"Neutralization IC50, H2-MO06 [40]: 0.57 mg/L; Neutralization IC50, H3-Pa99 [41]: 2.62 mg/L; Neutralization IC50, H7-BC04 [42]: 0.96 mg/L; Neutralization IC50, H3-VC11 [43]: 1.03 mg/L"
B5,1.6 mg/L and 1.5 mg/L,0.4 mg/L,0.46 mg/L,1.15 mg/L,0.31 mg/L,0.21 mg/L,0.43 mg/L,1.53 mg/L,0.53 mg/L,0.11 mg/L,0.46 mg/L,1.07 mg/L,0.57 mg/L,0.13 mg/L,0.24 mg/L,1.01 mg/L,0.94 mg/L,0.66 mg/L,0.17 mg/L,0.36 mg/L,"Neutralization IC50, H2-MO06 [40]: 0.6 mg/L; Neutralization IC50, H3-Pa99 [41]: 2.18 mg/L; Neutralization IC50, H7-BC04 [42]: 0.71 mg/L; Neutralization IC50, H3-VC11 [43]: 0.85 mg/L"
